These results are taken from the nanobody polyreactivity screen of Harvey et al. (2022).

This series is described as follows: yeast display, Sf9 membrane polyspecificity reagent, FACS + sequencing; frameworks hold sequencing errors. An outline of the steps:
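Galactose induction of a Saccharomyces cerevisiae BJ5465 synthetic nanobody display library ran 36–48 hours. The cells were then stained for 1 hour at 4 °C with 10% biotinylated, detergent-solubilized Sf9 membrane reagent, pulled down on streptavidin microbeads and FACS-sorted into low and high (top ~1%) gates on expression and reagent-binding fluorescence. Labels for polyreactivity follow the gate of origin.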
Turning to “QGKLVESGGGLVQAGGSLRLTCPASGSIFRLNTMGWYRQAPGKEREFVAAISKGGTSTYYADSVKGRFTISRDNAKNTVYLQLTSLIPEDTAVYYCARKRYPSAPFQYDYWGQGTQVTVSS”, the “polyreactivity (PSR sort gate)” value was “high polyreactivity”.

“QVQLGESGGGLVQAGGSLRLSCAASGFTFHKNAMGWYRQAPGKERELVAVISQSASSTYYSDSVKGRFTISRDIAKITVYLQMNGLKPEDTAVYYCNAKYYRYNRRNYWGQGTQVTVSS”: the “polyreactivity (PSR sort gate)” value is on record as “high polyreactivity”. Take “QVQLVESGGGLVQAGGSLRLICAASGLTFDVNAMGWYRQAPGKERELVAAITADDGSTYYADSVKGRFTISRDNAKNTVYLQMNSLKPEDTAVYYCNADTRTQGPYSAPYYREMNYWGQGTQVTVSS”: the “polyreactivity (PSR sort gate)” value is reported as “low polyreactivity”. “QVQLVESGGGLVQAGGSLRLSCAAYGSIIVRYAMGWYGQAPGKVRELVPTITFRDTSTYYADSVKGRFTSSRDNAKNTVYLQMNSLKPEDSAVYYCNAHIPTNRSYVPAVRGEDDYWGQGTQVTVSS”: the “polyreactivity (PSR sort gate)” value was “low polyreactivity”. Regarding “QVQLVESGGGLVQAGGSLRLSCAASGRTFFRYAMGWYRQAPGKERELVASISGGITNYADSVKGRFTISRDNAQNTVYLQMNSLKPEDTAVYYCAADDYPYSYSSQFQYTGYEYWGQGTQVTVSS”, the “polyreactivity (PSR sort gate)” value is recorded as “low polyreactivity”. For the sequence “QVQLVESGGGLVQAGGSLRLSCAASGSIFVGNGMGWYRQAPGKERELVAAITFRSGSTYYADSVKGRFTISRDNAKNTVYFQMISMKPEDTAVSYCAADEYYQVYAYDYCGQGTQVTVSS”, the “polyreactivity (PSR sort gate)” value is on record as “low polyreactivity”. Consider “QVQLVESGGGLVQAGGSLRLSCAASGLTQYKNGMGWYRQAPGKERELVAVISRSGGRTYYADSVKGRFTISRDNAKNTVYLQMNSLKPEDTAVYYCAARQYGPRYTYYYWGQGTQVTVSS”, for which the “polyreactivity (PSR sort gate)” value is “high polyreactivity”. “QDQLVESGGGLVQAGGSLRLSCAASGRTFVSNGMGWYRQAPGKERELLADINDGDDTYYADSVKGRFTISRDNAKNTVYLQMNSLKPEDTAVYYCAADPYWFFPHYDSWGQGTQVTVSS”: the “polyreactivity (PSR sort gate)” value was “low polyreactivity”. For “QDQRVESGGGLVQAGGSLRLSCAASVRTVNFNVMGWYSQARGKERELVAAISKSTGSTFYADSVKGRFTMSRDNAKNTGYLQKNSLKPEDTAVYYCIAVRCYGSGRGYGYCGQGTQVTVSS”, the “polyreactivity (PSR sort gate)” value is on record as “high polyreactivity”. In the case of “QVQLVESGGGLVQAGGSLRLSCAASGSTFRGNAMGWYRQAPGNEREFVAAITVSGGSTYYADSVKGRFTSSRDNAKNTVYLQMISLKPEDTAVYYCAGLTRGRGYDSWGQGTQVTVSS”, the “polyreactivity (PSR sort gate)” value is “high polyreactivity”.

On to “QVQLVESGGGLVQAGGSLRLSCAASGGIFDPYAMGWYRQAPGKERELVAAITNSGGSTYYADSVKGRFTISRDNAKNTVYLQMNSLKPEDTAVYYCAAEGLYVGYDYWGQGTQVTVSS”, for which the “polyreactivity (PSR sort gate)” value is given as “low polyreactivity”. In the case of “KLQLVESGGGLDQAGGSLRLSCAASGSIFVAYAMGSYRQAPGKERELVAAISKSGGSKYYADSVKGRFTISRDNAKNTVFLQMNSLKPEDTAVYYCAAGSDDFSRFGYWGQGTQVTVSS” it was “low polyreactivity”; in that of “QVQLVESGGGLVQAGGSLRLSCAASGFTFRWYTMGWYRPAPGKERELVAAISWSGTSTYYADSVKGRFTISRDNAKNTVYLQMNSLKPEDTAVYYCAAADFYYTGADDYWGQGTQVTVSS”, “high polyreactivity”; in that of “QVQLVESGGGLVQAGGSLRLSCAASGSTFYRYAMGWYRQAPGKERELVARIRLSGTSTYYADSVKGRFTISRDNAKNTVYLQMNSLKPEDTAVYYCAAELYSRNWRSQYDYWGQGSQVTVSS”, “high polyreactivity”. In the case of “QVQLVESGGGLVQAGGSLRLSCATSGFTFGWNYMGWYRQAPGKERELVAAITWSGGSTYYADSVKGRFTISRDNAKNTVYLQMNSLKPEDTAVYYCAAVVSDYVWRYEYWGQGSQVTVSS” it was “low polyreactivity”.

As to “QVQLVESGGGLVQAGGSLRLTCAASGFTFDTYAMGWYRQAPGKEREFVATISRNSGSTYYADSVKGRFTIARDNAKNTVYLQMNSLKPEDTAVYYCNRRRYGRKSDRMNYWGQGTQVTVSS”, the “polyreactivity (PSR sort gate)” value was “high polyreactivity”.

As to “QVQLVESGGGLVQAGGSLRLSCAASGRIFGYYAMGWYRQAPGKERELVAAIRYSSGRTYYADSVKGRFTISRDNAKNTVYLQMNSLKPEDTAVYYCNAYSSTYFYNYDYWGQGTQVTVSS”, the “polyreactivity (PSR sort gate)” value is “high polyreactivity”. For the sequence “QVQLVESGGGLVQAGGSLRLSCAASGSTFYTYTMGWYRQAPGKERELVAAITWSGGSTYYADSVKGRFTISRDNAKNTVYLQMNSLKPEDTAVYYCNADQDYQGARPSGMDYWGQGTQVTVSS”, the “polyreactivity (PSR sort gate)” value is on record as “low polyreactivity”.

On to “QVQLVESGGGLLQAGGSLRLSCAASGSTFWFYAMGWYRQAPGKERELVDVISNSGSTYYADSEKGRFTISRDNAKNTVYLQMNSLKPEDTAVYNCAADGFYYPNWGRFSYYYWGQGTLVTVSS”, for which the “polyreactivity (PSR sort gate)” value is “low polyreactivity”. Consider “QVQLVESGGGLVQAGGSLRLSCAASGITFFLYAMGWYRQAPGKERELVAVISASGGSTYYADSVKGRFTISRDNAKNTVYLQMNSLKPEDTAVYYCAAGYRFYGFYALYYWGQGTQVTVSS”, for which the “polyreactivity (PSR sort gate)” value is reported as “high polyreactivity”. In the case of “QVQLVESGRGLVQAGGSLRLSCASSGFIFGPYAMGWYRQAPGKERELVAAISRRGGSTYYADSVKGRFTISRDNAKNTVYLQMNSLKPEDTAVYYCATRISQSYYNYGYWGQGTQGTVSS”, the “polyreactivity (PSR sort gate)” value is reported as “high polyreactivity”. As for “QVQLLESGGGLVQAGGSLRLSSMASASILGDRMSWYRQAPGKEHELVATIYDGGISYYADSMKGRFTISRDNAKNTVYLQMNSLRPEDTAVFFCGASFEGYRFHVYCGQGTQVTVSS”, the “polyreactivity (PSR sort gate)” value is “low polyreactivity”. “QVQLLESGGGLVQAGGSLRLSCAASGFNFYRYAMGWYRQAPGKERELVAAIRKSGGSTYYADSVKGRFTISRDNAKNTVYCQMNSLKPEDTAVSYCAKRYATDGFGYWGQGTQVSVSS”: the “polyreactivity (PSR sort gate)” value is “high polyreactivity”. As to “QVQLVESGGGLVQAGGSLRLSCAASGIIFYHYPMGWYRQAPGKERELVAAITGSGIRTYYADSVKGRFTISRDNAMNTVYLQMNSLKPEDTAVYYCGAQQRYWSTYGYWGQGTQVTVSS”, the “polyreactivity (PSR sort gate)” value was “high polyreactivity”. In the case of “QVQLVESGGGLVQAGGSLRLSCAASGSIFYYTNTMGWYRQAPGKERELFAAISSSGGTTYADSVKGRFTISRDYSKNTVYLQMNSLKPEDSAVYYCALDCVLKTYVRGTYDYWGQGTQVTVSS”, the “polyreactivity (PSR sort gate)” value is “high polyreactivity”.

Turning to “QVQLVESGGGLVQAGGSLRLSCAASGRSFAPYAMGWSRQAPGKERELVAAISLSTTRTYYADSVKGRFTISRDNAKNTVYLQMNSLKPEDTAVYYCAAETFTGYFFLRHDYWGQGTQVTVSS”, the “polyreactivity (PSR sort gate)” value is given as “high polyreactivity”. In the case of “QVQLVETGGGLVQAGGSLRLSCAASGRIFDIYAMGWYRQAPGKERELVAAIDESGGSTYYADSVKGRFTISRDNAKNTVYLQMNSLKPEDTAVYYCATDDTWTISYGWYWFTYEYWGQGTQVTVSS” it was “low polyreactivity”; in that of “QVQLVESGGGLVQAGGSLRLSCAASGSIFRAYAMGWYRQAPGKERELVAAITRGGSTNYADSVKGRFTISRDNAKNNVYLQMKSLKPEDTAVYYCAAQNYWYYPRRFDYWGQGTQVTVSS”, “high polyreactivity”. The result for “QVQLVESGGGLVQAGGSLRLSCAASGSNFKTYVMGWSRQAPGKERELVAAITSSGGRTYYADSVKGRFTISRDNAKNSVYLQMNSLKPEDTAVYYCNTAPRWVGRNDYWGQGTQVTVSS” reads “high polyreactivity”; that for “QVQLVESGGGLVQAGGSLRLSCADSGSTFLVYSMGWYRQAPGKERELVAVIDNGGDTYYADSVKGRFTISRDNAKNTVYLQMNSLKPEDTEVYYCAADLSYLGYWEYDYWGQGSQVTVSS”, “low polyreactivity”; that for “QVQLVESGGGLVQAGGSLRLSCAASGGIFDTYAMGWYRQAPGKERELVAAISRRGGNTYYADSVKGRFTISRDNAKNTVYLQMNSLKPEDTAVYYCAAYYHGRMDYWGQGTQVTVSS”, “high polyreactivity”. As to “QVQLVESGGGLVQAGGSLRLSCAASGSTFTDYAMGWYRQAPGKERELVAAITNSGSSTNYEDSVKGRFTISRDNAKNTVYLQMNSLKPEDTAVYYCNASSYPWEYYYLYYGYDYWVQGTQVTVSS”, the “polyreactivity (PSR sort gate)” value is on record as “low polyreactivity”. In the case of “QVQLVESGGGLVQAGGSLRLSCAASGINFDDNAMGWYRQAPGKERELVATISDGGRTYYADSVKGRFTISRDNAKNTVYLQMNSQKPEDTAVYYCADRLWWPYSPAWAKMDYGGQGTQVTVSS”, the “polyreactivity (PSR sort gate)” value was “low polyreactivity”. The result for “QVQLVESGGGLVQAGRSLRLSSAASGSIVAPNPMGWYRQAPGKEREYVAAITLDDGRTYYADSVKGRFTISRDNSNNTVYLHMNSRKPEDTAVYYCNAEWRGYSVYWRTRYDSWGQGTHVTVSS” reads “low polyreactivity”; that for “QVHLVESGVGLVQAGGSRRLSCAASGVIFTGYAMGRYRHAPGKDRELVAAISSSGTSTYYADSVKGRFTISRDNAKYTVYLQINSLKPEDTAVYYCARVSKRTWSGYYFLGQGTQVTVSS”, “high polyreactivity”. In the case of “QVQLVESGGGLVQAGGSLRLSCAASGYIFSYNAMGWYRQAPGKERELVAAITASGGGTYYADSVKGRFTISRDNAKNTVYLQMNSLKPDDTAVYYCAATPYSTQGLRPKFDYWGQGTQVTVSS” it was “low polyreactivity”; in that of “QVQLVESGGGLVQAGGSLRLSCAASGSTFYLYAMGWYRQAPGKERELVASITYSGASTYYADSVKGRFTISRDNAKNTVYLQMNSQKPEDTAVYYCAADQRGWFAVGSQRKYNYWGQGTQVTVSS”, “low polyreactivity”. For “QVQLVESGGGLVQAGGSLRLSCAASGSTFDPNAMGWYRHAPGKERELVAAIDSGGSSYYADSVKGRFTISRDNAKYTVYLQMNSLKPEDTAVYYCASNIVGRSPYDSNYDFEYWGQGTQVTVSS”, the “polyreactivity (PSR sort gate)” value is reported as “low polyreactivity”. Turning to “QVQLVESGGGLVQAGGSLRLSCAASGNTFVTNDMGWYRQAPRKERELVADISWGGASTYYADSVKGRFTISRDNAKNTVYLQMNSLIPEDTAVYYCYATDDITYTYSYDYWGQGTQVTVSS”, the “polyreactivity (PSR sort gate)” value is recorded as “low polyreactivity”. For “QVQLVESGGGLVQAGGSLRLICAASGRTFGYYTMGWYRPAPGKERELVARINYIGSSTYYADSVKGRFTISRDNAKNTVYLQMNSLKPEDTAVYYCNADNARGRSGVRRYYWGQGTQVTVSS”, the “polyreactivity (PSR sort gate)” value was “high polyreactivity”.
